Here are results for 3 substances from article PMC5524369.

The term Kd denotes the concentration at which binding is half-saturated.

Assay [1] deals with Tamm-Horsfall protein (human) (UniProt P07911). The assay is described as follows: ELISA; wells coated with 25 μg/ml THP; C3b 1 to 250 μg/ml in 20 mM Tris/20 mM NaCl/0.05% Tween 20 (pH 7.5) without BSA, overnight, 4°C; detected with goat anti-human C3b; fitted to B = (F × Cap)/(KD + F). (In general: In an ELISA, binding on a coated surface is turned into a signal by an enzyme label.)

For another assay, the target named is C1q (Homo sapiens) (UniProt P02745). Conditions: cited from earlier work.
Chain of C1q (Homo sapiens) (P02745 23-245, chain 1 of 3): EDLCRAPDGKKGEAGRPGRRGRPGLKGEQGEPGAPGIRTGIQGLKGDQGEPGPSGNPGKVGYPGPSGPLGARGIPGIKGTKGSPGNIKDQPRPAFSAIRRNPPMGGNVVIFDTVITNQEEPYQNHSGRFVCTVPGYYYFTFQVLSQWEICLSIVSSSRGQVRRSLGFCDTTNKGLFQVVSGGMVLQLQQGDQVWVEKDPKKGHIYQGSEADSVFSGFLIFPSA
Chain of C1q (Homo sapiens) (P02746 28-253, chain 2 of 3, further chain): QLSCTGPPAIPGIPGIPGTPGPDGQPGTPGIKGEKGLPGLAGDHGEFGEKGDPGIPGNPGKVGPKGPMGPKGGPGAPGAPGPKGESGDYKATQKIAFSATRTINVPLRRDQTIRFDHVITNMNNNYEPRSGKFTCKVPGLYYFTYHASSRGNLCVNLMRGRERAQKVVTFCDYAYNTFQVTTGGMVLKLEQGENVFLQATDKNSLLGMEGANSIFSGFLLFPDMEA
Chain of C1q (Homo sapiens) (P02747 29-245, chain 3 of 3, further chain): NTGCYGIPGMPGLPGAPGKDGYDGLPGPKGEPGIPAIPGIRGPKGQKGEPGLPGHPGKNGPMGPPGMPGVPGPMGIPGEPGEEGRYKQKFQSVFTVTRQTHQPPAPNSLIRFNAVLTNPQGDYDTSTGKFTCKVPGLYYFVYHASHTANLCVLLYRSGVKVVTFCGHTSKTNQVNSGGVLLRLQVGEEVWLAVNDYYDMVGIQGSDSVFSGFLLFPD
For assay [2], the target named is complement factor H (Homo sapiens) (UniProt P08603). Kind of assay: SPR. Conditions: cited from earlier work.
Chain of complement factor H (Homo sapiens) (P08603 19-1231): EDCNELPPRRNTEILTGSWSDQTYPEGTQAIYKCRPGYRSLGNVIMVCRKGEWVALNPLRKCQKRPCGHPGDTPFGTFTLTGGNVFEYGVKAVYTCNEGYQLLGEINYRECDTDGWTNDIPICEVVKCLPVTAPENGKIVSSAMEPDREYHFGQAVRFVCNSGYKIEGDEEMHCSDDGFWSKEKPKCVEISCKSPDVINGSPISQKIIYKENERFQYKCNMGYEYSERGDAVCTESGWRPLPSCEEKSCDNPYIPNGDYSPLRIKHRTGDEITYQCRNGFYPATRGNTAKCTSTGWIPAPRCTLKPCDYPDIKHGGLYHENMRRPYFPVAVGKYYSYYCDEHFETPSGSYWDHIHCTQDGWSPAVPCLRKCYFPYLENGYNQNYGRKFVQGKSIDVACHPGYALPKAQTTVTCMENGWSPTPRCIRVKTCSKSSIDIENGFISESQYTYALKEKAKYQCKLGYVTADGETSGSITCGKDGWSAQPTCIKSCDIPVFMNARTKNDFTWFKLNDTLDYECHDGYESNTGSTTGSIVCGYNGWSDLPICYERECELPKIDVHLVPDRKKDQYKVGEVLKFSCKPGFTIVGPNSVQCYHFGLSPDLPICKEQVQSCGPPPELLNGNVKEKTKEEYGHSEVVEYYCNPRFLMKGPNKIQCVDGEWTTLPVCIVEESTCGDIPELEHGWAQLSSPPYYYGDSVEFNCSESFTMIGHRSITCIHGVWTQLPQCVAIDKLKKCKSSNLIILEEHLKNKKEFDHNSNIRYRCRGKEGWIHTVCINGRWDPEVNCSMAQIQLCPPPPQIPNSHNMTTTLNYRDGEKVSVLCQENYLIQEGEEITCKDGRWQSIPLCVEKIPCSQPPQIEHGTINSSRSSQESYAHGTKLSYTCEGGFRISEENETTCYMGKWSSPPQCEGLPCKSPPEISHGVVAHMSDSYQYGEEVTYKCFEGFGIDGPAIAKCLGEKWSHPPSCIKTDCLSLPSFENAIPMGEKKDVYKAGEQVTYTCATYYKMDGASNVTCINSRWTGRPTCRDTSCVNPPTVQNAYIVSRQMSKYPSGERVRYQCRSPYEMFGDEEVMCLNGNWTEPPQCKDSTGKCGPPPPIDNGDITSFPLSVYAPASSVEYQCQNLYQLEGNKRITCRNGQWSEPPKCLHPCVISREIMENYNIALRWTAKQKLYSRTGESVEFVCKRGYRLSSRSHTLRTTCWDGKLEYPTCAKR
Assay [3] has as its target Tamm-Horsfall protein (human) (UniProt P07911). The assay is described as follows: ELISA; wells coated with 25 μg/ml THP; CFH 10 to 250 μg/ml in 1% BSA/20 mM Tris/20 mM NaCl/0.05% Tween 20 (pH 7.5), overnight, 4°C; detected with goat anti-human CFH; fitted to B = (F × Cap)/(KD + F).
Assay [4] has the same target. The description is as above. This is another data set of the same source.

Chain of complement factor H (P08603 19-1231): as above

Turning to “complement 3b (from UniProt P01024 749-1663; P01024 749-1663) (natural protein)”, the Kd in assay [1] was 0.05 µM.
For the substance THP (uromodulin) (from UniProt P07911), the Kd in the assay with C1q (Homo sapiens) was 0.001 µM; in assay [2], 4 µM.
For the substance “complement factor H (from UniProt P08603 19-1231) (natural protein)”, the Kd in assay [3] was 1 µM; in assay [4], 1.2 µM.
